The source of these data is patent publication US20230220021A1 (UNIVERSITY OF COPENHAGEN, published 2023).

In experiment [1] the target is T1, (7× His)-PSD-95-PDZ2 wild type (UniProt P78352 160-246).
T1 construct: domain: PDZ2; recombinant from E. coli; also called PSD-95-PDZ2 WT; not shown: 7x His tag
The experiment is described as follows: FP competition.

Experiment [2] deals with T1, (7× His)-PSD-95-PDZ2 wild type. The experiment is described as follows: FP competition. This is another data set of the same source.
Description: Fluorescence polarization (FP). FP assays were performed in a 384-well plate format. Fluorescence polarization was measured using a Safire 2 plate reader. The instrument Z-factor was optimized for each assay. The G-factor was calibrated to an initial milli polarization value of 20. […] Every measurement was performed in NaPI 50 mM, 50 mM NaCl and 1% BSA at pH 7.2, 25° C. […] The curves were done in triplicates. Then, the polarization was fitted into a one-site binding model using Prism software 8.0 (GraphPad), from which the Kd can be measured. […] The mili polarization (mP) values were plotted as a function of peptide concentration and fitted to a sigmoidal dose-response curve using Prism software 8.0 (GraphPad). The Kᵢ values were calculated according to Nikolovska-Coleska Z. et al.⁴⁰⁻⁴¹

Usually Ki stands for the dissociation constant of the complex between target and ligand, obtained from inhibition or displacement. Low readings indicate tighter binding, high ones weaker binding.

Read-outs that look alike come from different tables or passages of the source. [ ]: non-standard residue; d: D form.

T1 sequence (P78352 160-246): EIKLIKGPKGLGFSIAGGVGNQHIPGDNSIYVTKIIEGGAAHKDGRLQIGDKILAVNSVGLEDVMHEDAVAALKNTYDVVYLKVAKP

B1: cyclic nNOS β-hairpin peptide D114A (peptide)
peptide: cyclo(THLETTFTGAGTPKTIRVTQ[dP]GQ)
SMILES: CC[C@H](C)[C@@H]1NC(=O)[C@H]([C@@H](C)O)NC(=O)[C@H](CCCCN)NC(=O)[C@@H]2CCCN2C(=O)[C@H]([C@@H](C)O)NC(=O)CNC(=O)[C@H](C)NC(=O)CNC(=O)[C@H]([C@@H](C)O)NC(=O)[C@H](Cc2ccccc2)NC(=O)[C@H]([C@@H](C)O)NC(=O)[C@H]([C@@H](C)O)NC(=O)[C@H](CCC(=O)O)NC(=O)[C@H](CC(C)C)NC(=O)[C@H](Cc2c[nH]cn2)NC(=O)[C@H]([C@@H](C)O)NC(=O)[C@H](CCC(N)=O)NC(=O)CNC(=O)[C@H]2CCCN2C(=O)[C@H](CCC(N)=O)NC(=O)[C@H]([C@@H](C)O)NC(=O)[C@H](C(C)C)NC(=O)[C@H](CCCNC(=N)N)NC1=O
B1: in experiment [1], the Ki turned out to be 3220 nM and the “Relative Ki (Ki mut/Ki WT)” value turned out to be 2.15.

B2: cyclic nNOS β-hairpin peptide V122F (peptide)
peptide: cyclo(THLETTFTGDGTPKTIRFTQ[dP]GQ)
SMILES: CC[C@H](C)[C@@H]1NC(=O)[C@H]([C@@H](C)O)NC(=O)[C@H](CCCCN)NC(=O)[C@@H]2CCCN2C(=O)[C@H]([C@@H](C)O)NC(=O)CNC(=O)[C@H](CC(=O)O)NC(=O)CNC(=O)[C@H]([C@@H](C)O)NC(=O)[C@H](Cc2ccccc2)NC(=O)[C@H]([C@@H](C)O)NC(=O)[C@H]([C@@H](C)O)NC(=O)[C@H](CCC(=O)O)NC(=O)[C@H](CC(C)C)NC(=O)[C@H](Cc2c[nH]cn2)NC(=O)[C@H]([C@@H](C)O)NC(=O)[C@H](CCC(N)=O)NC(=O)CNC(=O)[C@H]2CCCN2C(=O)[C@H](CCC(N)=O)NC(=O)[C@H]([C@@H](C)O)NC(=O)[C@H](Cc2ccccc2)NC(=O)[C@H](CCCNC(=N)N)NC1=O
On to B2, for which, in experiment [2], affinity was put at a Ki of 1340 nM and the “Relative Ki (Ki mut/Ki WT)” value worked out at 0.89.

B3: cyclic nNOS β-hairpin peptide T123Y (peptide)
peptide: cyclo(THLETTFTGDGTPKTIRVYQ[dP]GQ)
SMILES: CC[C@H](C)[C@@H]1NC(=O)[C@H]([C@@H](C)O)NC(=O)[C@H](CCCCN)NC(=O)[C@@H]2CCCN2C(=O)[C@H]([C@@H](C)O)NC(=O)CNC(=O)[C@H](CC(=O)O)NC(=O)CNC(=O)[C@H]([C@@H](C)O)NC(=O)[C@H](Cc2ccccc2)NC(=O)[C@H]([C@@H](C)O)NC(=O)[C@H]([C@@H](C)O)NC(=O)[C@H](CCC(=O)O)NC(=O)[C@H](CC(C)C)NC(=O)[C@H](Cc2c[nH]cn2)NC(=O)[C@H]([C@@H](C)O)NC(=O)[C@H](CCC(N)=O)NC(=O)CNC(=O)[C@H]2CCCN2C(=O)[C@H](CCC(N)=O)NC(=O)[C@H](Cc2ccc(O)cc2)NC(=O)[C@H](C(C)C)NC(=O)[C@H](CCCNC(=N)N)NC1=O
With B3, in experiment [2], the Ki is 1870 nM and the “Relative Ki (Ki mut/Ki WT)” value turned out to be 1.25.

B4: cyclic nNOS β-hairpin peptide E108A (peptide)
peptide: cyclo(THLATTFTGDGTPKTIRVTQ[dP]GQ)
SMILES: CC[C@H](C)[C@@H]1NC(=O)[C@H]([C@@H](C)O)NC(=O)[C@H](CCCCN)NC(=O)[C@@H]2CCCN2C(=O)[C@H]([C@@H](C)O)NC(=O)CNC(=O)[C@H](CC(=O)O)NC(=O)CNC(=O)[C@H]([C@@H](C)O)NC(=O)[C@H](Cc2ccccc2)NC(=O)[C@H]([C@@H](C)O)NC(=O)[C@H]([C@@H](C)O)NC(=O)[C@H](C)NC(=O)[C@H](CC(C)C)NC(=O)[C@H](Cc2c[nH]cn2)NC(=O)[C@H]([C@@H](C)O)NC(=O)[C@H](CCC(N)=O)NC(=O)CNC(=O)[C@H]2CCCN2C(=O)[C@H](CCC(N)=O)NC(=O)[C@H]([C@@H](C)O)NC(=O)[C@H](C(C)C)NC(=O)[C@H](CCCNC(=N)N)NC1=O
As for B4, in experiment [1], the Ki turned out to be 21200 nM and the “Relative Ki (Ki mut/Ki WT)” value amounted to 14.1.

B5: cyclic nNOS β-hairpin peptide V122R (peptide)
peptide: cyclo(THLETTFTGDGTPKTIRRTQ[dP]GQ)
SMILES: CC[C@H](C)[C@@H]1NC(=O)[C@H]([C@@H](C)O)NC(=O)[C@H](CCCCN)NC(=O)[C@@H]2CCCN2C(=O)[C@H]([C@@H](C)O)NC(=O)CNC(=O)[C@H](CC(=O)O)NC(=O)CNC(=O)[C@H]([C@@H](C)O)NC(=O)[C@H](Cc2ccccc2)NC(=O)[C@H]([C@@H](C)O)NC(=O)[C@H]([C@@H](C)O)NC(=O)[C@H](CCC(=O)O)NC(=O)[C@H](CC(C)C)NC(=O)[C@H](Cc2c[nH]cn2)NC(=O)[C@H]([C@@H](C)O)NC(=O)[C@H](CCC(N)=O)NC(=O)CNC(=O)[C@H]2CCCN2C(=O)[C@H](CCC(N)=O)NC(=O)[C@H]([C@@H](C)O)NC(=O)[C@H](CCCNC(=N)N)NC(=O)[C@H](CCCNC(=N)N)NC1=O
As for B5, in experiment [2], the affinity, expressed as Ki, was 1690 nM and the “Relative Ki (Ki mut/Ki WT)” value worked out at 1.13.

B6: cyclic nNOS β-hairpin peptide T123R (peptide)
peptide: cyclo(THLETTFTGDGTPKTIRVRQ[dP]GQ)
SMILES: CC[C@H](C)[C@@H]1NC(=O)[C@H]([C@@H](C)O)NC(=O)[C@H](CCCCN)NC(=O)[C@@H]2CCCN2C(=O)[C@H]([C@@H](C)O)NC(=O)CNC(=O)[C@H](CC(=O)O)NC(=O)CNC(=O)[C@H]([C@@H](C)O)NC(=O)[C@H](Cc2ccccc2)NC(=O)[C@H]([C@@H](C)O)NC(=O)[C@H]([C@@H](C)O)NC(=O)[C@H](CCC(=O)O)NC(=O)[C@H](CC(C)C)NC(=O)[C@H](Cc2c[nH]cn2)NC(=O)[C@H]([C@@H](C)O)NC(=O)[C@H](CCC(N)=O)NC(=O)CNC(=O)[C@H]2CCCN2C(=O)[C@H](CCC(N)=O)NC(=O)[C@H](CCCNC(=N)N)NC(=O)[C@H](C(C)C)NC(=O)[C@H](CCCNC(=N)N)NC1=O
B6: in experiment [2], affinity was put at a Ki of 1590 nM and the “Relative Ki (Ki mut/Ki WT)” value was determined as 1.06.

B7: cyclic nNOS β-hairpin peptide G113A (peptide)
peptide: cyclo(THLETTFTADGTPKTIRVTQ[dP]GQ)
SMILES: CC[C@H](C)[C@@H]1NC(=O)[C@H]([C@@H](C)O)NC(=O)[C@H](CCCCN)NC(=O)[C@@H]2CCCN2C(=O)[C@H]([C@@H](C)O)NC(=O)CNC(=O)[C@H](CC(=O)O)NC(=O)[C@H](C)NC(=O)[C@H]([C@@H](C)O)NC(=O)[C@H](Cc2ccccc2)NC(=O)[C@H]([C@@H](C)O)NC(=O)[C@H]([C@@H](C)O)NC(=O)[C@H](CCC(=O)O)NC(=O)[C@H](CC(C)C)NC(=O)[C@H](Cc2c[nH]cn2)NC(=O)[C@H]([C@@H](C)O)NC(=O)[C@H](CCC(N)=O)NC(=O)CNC(=O)[C@H]2CCCN2C(=O)[C@H](CCC(N)=O)NC(=O)[C@H]([C@@H](C)O)NC(=O)[C@H](C(C)C)NC(=O)[C@H](CCCNC(=N)N)NC1=O
On to B7, for which, in experiment [1], the Ki was found to be 4550 nM and the “Relative Ki (Ki mut/Ki WT)” value is 3.03.

B8: cyclic nNOS β-hairpin peptide V122Y (peptide)
peptide: cyclo(THLETTFTGDGTPKTIRYTQ[dP]GQ)
SMILES: CC[C@H](C)[C@@H]1NC(=O)[C@H]([C@@H](C)O)NC(=O)[C@H](CCCCN)NC(=O)[C@@H]2CCCN2C(=O)[C@H]([C@@H](C)O)NC(=O)CNC(=O)[C@H](CC(=O)O)NC(=O)CNC(=O)[C@H]([C@@H](C)O)NC(=O)[C@H](Cc2ccccc2)NC(=O)[C@H]([C@@H](C)O)NC(=O)[C@H]([C@@H](C)O)NC(=O)[C@H](CCC(=O)O)NC(=O)[C@H](CC(C)C)NC(=O)[C@H](Cc2c[nH]cn2)NC(=O)[C@H]([C@@H](C)O)NC(=O)[C@H](CCC(N)=O)NC(=O)CNC(=O)[C@H]2CCCN2C(=O)[C@H](CCC(N)=O)NC(=O)[C@H]([C@@H](C)O)NC(=O)[C@H](Cc2ccc(O)cc2)NC(=O)[C@H](CCCNC(=N)N)NC1=O
Regarding B8, in experiment [2], the affinity corresponds to a Ki of 1270 nM and the “Relative Ki (Ki mut/Ki WT)” value worked out at 0.85.
